{"source": "patent US20080131510", "key": {"[1]": {"molecular_target": "T1, Lys*-Gly-Leu-Cys (SEQ ID NO:33)", "T1 chain": "KGLC"}, "[2]": {"molecular_target": "T2, Lys*-Pro-Ala-Gly-Leu-Leu-Gly-Cys (SEQ ID NO:2)", "T2 chain": "KPAGLLGC"}, "[3]": {"molecular_target": "T3, Lys*-Ala-Gly-Leu-Leu-Cys (SEQ ID NO:32)", "T3 chain": "KAGLLC"}, "[4]": {"molecular_target": "T4, Lys*-Pro-Ala-Gly-Leu-Leu-Gly-Cys (SEQ ID NO:2), pendant in PEG(8000)DA hydrogel and complexed with Pt (not fully specified)", "T4 chain": "KPAGLLGC"}, "[5]": {"molecular_target": "T1, Lys*-Gly-Leu-Cys (SEQ ID NO:33)", "assay": "peptide cleavage kinetics by HPLC, 10 nM activated MMP; the filing calls Km 'affinity or binding strength'"}, "[6]": {"molecular_target": "T2, Lys*-Pro-Ala-Gly-Leu-Leu-Gly-Cys (SEQ …)", "assay": "peptide cleavage kinetics by HPLC, 10 nM activated MMP; the filing calls Km 'affinity or binding strength'"}, "[7]": {"molecular_target": "T3, Lys*-Ala-Gly-Leu-Leu-Cys (SEQ ID NO:32)", "assay": "peptide cleavage kinetics by HPLC, 10 nM activated MMP; the filing calls Km 'affinity or binding strength'"}}, "data": [{"protein": "matrix metalloprotease-2 (MMP-2), activated (protein) YNFFPRKPKWDKNQITYRIIGYTPDLDPETVDDAFARAFQVWSDVTPLRFSRIHDGEADIMINFGRWEHGDGYPFDGKDGLLAHAFAPGTGVGGDSHFDDDELWTLGEGQVVRVKYGNADGEYCKFPFLFNGKEYNSCTDTGRSDGFLWCSTTYNFEKDGKYGFCPHEALFTMGGNAEGQPCKFPFRFQGTSYDSCTTEGRTDGYRWCGTTEDYDRDKKYGFCPETAMSTVGGNSEGAPCVFPFTFLGNKYESCTSAGRSDGKMWCATTANYDDDRKWGFCPDQGYSLFLVAAHEFGHAMGLEHSQDPGALMAPIYTYTKNFRLSQDDIKGIQELYGASPDIDLGTGPTPTLGPVTPEICKQDIVFDGIAQIRGEIFFFKDRFIWRTVTPRDKPMGPLLVATFWPELPEKIDAVYEAPQEEKAVFFAGNEYWIYSASTLERGYPKPLTSLGLPPDVQRVDAAFNWSKNKKTYIFAGDKFWRYNEVKKKMDPGFPKLIADAWNAIPDNLDAVVDLQGGGHSYFFKGAYYLKLENQSLKSVKFGSIKSDWLGC", "values": [{"measurement": "Kcat/Km", "setting": "[1]", "value": 439, "unit": "M⁻¹ s⁻¹"}, {"measurement": "Vmax", "setting": "[1]", "value": "8.8e-10", "unit": "M/s"}, {"measurement": "kcat", "setting": "[1]", "value": 0.035, "unit": "s⁻¹"}, {"measurement": "Kcat/Km", "setting": "[2]", "value": 10700, "unit": "M⁻¹ s⁻¹"}, {"measurement": "Vmax", "setting": "[2]", "value": "2.7e-07", "unit": "M/s"}, {"measurement": "kcat", "setting": "[2]", "value": 10.7, "unit": "s⁻¹"}, {"measurement": "Kcat/Km", "setting": "[3]", "value": 171, "unit": "M⁻¹ s⁻¹"}, {"measurement": "Vmax", "setting": "[3]", "value": "6.02e-09", "unit": "M/s"}, {"measurement": "kcat", "setting": "[3]", "value": 0.24, "unit": "s⁻¹"}, {"measurement": "release of cleaved fragment from the PEG(8000)DA hydrogels", "setting": "[4]", "value": "the addition of MMP-2 and MMP-9 showed a significantly higher release of cleaved fragment from the PEG(8000)DA hydrogels compared to the control"}, {"measurement": "Km", "setting": "[5]", "value": 81, "unit": "µM"}, {"measurement": "Km", "setting": "[6]", "value": 1000, "unit": "µM"}, {"measurement": "Km", "setting": "[7]", "value": 1400, "unit": "µM"}]}]}
